Experimental data published in article PMC12360793 (2025).
Where a chain is given by its changes, count along the chain named. Like-named read-outs stand apart in the source and are kept apart here.

Key:
Test in all cases: BLI
[1] = molecular target: T1, biotinylated monomeric MOW15–22 RBD (MOW15–22 (bat MERSr-CoV sampled in …))
[2] = molecular target: T2, PnNL2018B S1-hFc (PnNL2018B (bat MERSr-CoV sampled in …))
[3] = molecular target: T2, PnNL2018B S1-hFc; remark: listed apart in the source
[4] = molecular target: T1, biotinylated monomeric MOW15–22 RBD; remark: listed apart in the source

B1: dimeric P.dav ACE2 ectodomain (residues 17–728, avi-His8) (domain or fragment)
chain: AQSTTEELAKTFLEKFNHEAEELSYQSSLASWNYNTNITDENVQKMNEAGAKWSAFYEEQSKLAKTYPLAEIHNTTVKRQLQALQQSGSSVLSADKSQRLNTILNAMSTIYSTGKACNPNNPQECLLLEPGLDDIMENSKDYNERLWAWEGWRAEVGKQLRPLYEEYVALKNEMARANNYEDYGDYWRGDYEEEWTDGYNYSRSQLIKDVEHTFTQIKPLYQHLHAYVRAKLMDTYPSRISPTGCLPAHLLGDMWGRFWTNLYPLTVPFGQKPNIDVTDAMVNQSWDARRIFKEAEKFFVSVGLPNMTQGFWENSMLTEPGDSRKVVCHPTAWDLGKGDFRIKMCTKVTMDDFLTAHHEMGHIQYDMAYAVQPFLLRNGANEGFHEAVGEIMSLSAATPNHLKTIGLLSPGFSEDSETEINFLLKQALTIVGTLPFTYMLEKWRWMVFKGEIPKEQWMQKWWEMKREIVGVVEPVPHDETYCDPASLFHVANDYSFIRYYTRTIYQFQFQEALCRIAKHEGPLHKCDISNSSEAGKKLLQMLTLGKSKPWTLALEHVVGEKKMNVTPLLKYFEPLFTWLKEQNRNSFVGWNTDWRPYADQSIKVRISLKSALGDEAYEWNDNEMYLFRSSVAYAMREYFSKVKNQTIPFVEDNVWVSNLKPRISFNFFVTASKNVSDVIPRSEVEEAIRMSRSRINDAFRLDDNSLEFLGIQ
[1]
  koff: 0.000712 s⁻¹

B2: monomeric P.dav ACE2 ectodomain (residues 17–613, avi-His8) (domain or fragment)
chain: AQSTTEELAKTFLEKFNHEAEELSYQSSLASWNYNTNITDENVQKMNEAGAKWSAFYEEQSKLAKTYPLAEIHNTTVKRQLQALQQSGSSVLSADKSQRLNTILNAMSTIYSTGKACNPNNPQECLLLEPGLDDIMENSKDYNERLWAWEGWRAEVGKQLRPLYEEYVALKNEMARANNYEDYGDYWRGDYEEEWTDGYNYSRSQLIKDVEHTFTQIKPLYQHLHAYVRAKLMDTYPSRISPTGCLPAHLLGDMWGRFWTNLYPLTVPFGQKPNIDVTDAMVNQSWDARRIFKEAEKFFVSVGLPNMTQGFWENSMLTEPGDSRKVVCHPTAWDLGKGDFRIKMCTKVTMDDFLTAHHEMGHIQYDMAYAVQPFLLRNGANEGFHEAVGEIMSLSAATPNHLKTIGLLSPGFSEDSETEINFLLKQALTIVGTLPFTYMLEKWRWMVFKGEIPKEQWMQKWWEMKREIVGVVEPVPHDETYCDPASLFHVANDYSFIRYYTRTIYQFQFQEALCRIAKHEGPLHKCDISNSSEAGKKLLQMLTLGKSKPWTLALEHVVGEKKMNVTPLLKYFEPLFTWLKEQNRNSFVGWNTDWRPY
[1]
  koff: 0.0567 s⁻¹

B3: soluble dimeric P.nat ACE2 ectodomain (residues 18–739, twin-strep-3×FLAG) (domain or fragment)
chain: QSLTTEEKAREFLDKFNSEAENWSHESALASWDYNTNINDKNAQKMNEADSKWSAFYKEHSKLAQGFPLQEIQNSTIKLQLQILQQNGSSVLTAEKSKRLSTILTTMSTIYSTGKVCNPNNPQQCFTLSGLEDIMEKSKDYHQRLWIWEGWRSEVGKQLRPLYEEYVALKNEMARGNNYKDYGDYWRGDYETEGGDGYNYSRNHLIEDVDRIFLEIKPLYEQLHAYVRAKLMNAYPSRISPTGCLPAHLLGDMWGRFWTNLYNLTVPFEKKQNIDVTDTMKKQSWDAEKIFKEAEKFYLSVGLHNMTPEFWNNSMLTEPSDGRQVVCHPTAWDLGKNDFRIKMCTKVTMDDFLTAHHEMGHIQYDMAYAKQPYLLRNGANEGFHEAVGEVMSLSVATPKHLKGMGLLPSNFSEDCETEINFLLKQALNIVGTLPFTYMLEKWRWMVFEGKIPKEQWMEKWWEMKREIVGVVEPLPHDETYCDPASLFHVANDYSFIRYFTRTILEFQFQEALCQIANHTGPLHKCDISNSTEAGKQLKNMLELGKSKPWTFALEQIARTKEMDAKPLLNYFKPLFSWLKEQNGNSVGWSADWSPYSEQSIKVRISLKSALGEKAYEWNDNEMYLFRSSVAYAMRVYFLKVKNETIPFRAEDVWVSDEKIRVSFKFFVTSPTNVSDIIPRSEVEDAIRMSRGRINDAFRLDDKTLEFLGIQPTLGPPYQPPVT
[2]
  Kd: 183 nM
  koff: 0.00727 s⁻¹

B4: soluble dimeric P.nat.M1 ACE2 ectodomain (twin-strep-3×FLAG) (domain or fragment)
chain: B3 chain with V390I, V395A, G403D, M404L, P408A, S409Q, F411Y, S412P, C415Y
[3]
  Kd: 16.9 nM
  koff: 0.00179 s⁻¹

B5: dimeric P.nat ACE2 ectodomain (residues 17–729, avi-His8) (domain or fragment)
chain: AQSLTTEEKAREFLDKFNSEAENWSHESALASWDYNTNINDKNAQKMNEADSKWSAFYKEHSKLAQGFPLQEIQNSTIKLQLQILQQNGSSVLTAEKSKRLSTILTTMSTIYSTGKVCNPNNPQQCFTLSGLEDIMEKSKDYHQRLWIWEGWRSEVGKQLRPLYEEYVALKNEMARGNNYKDYGDYWRGDYETEGGDGYNYSRNHLIEDVDRIFLEIKPLYEQLHAYVRAKLMNAYPSRISPTGCLPAHLLGDMWGRFWTNLYNLTVPFEKKQNIDVTDTMKKQSWDAEKIFKEAEKFYLSVGLHNMTPEFWNNSMLTEPSDGRQVVCHPTAWDLGKNDFRIKMCTKVTMDDFLTAHHEMGHIQYDMAYAKQPYLLRNGANEGFHEAVGEVMSLSVATPKHLKGMGLLPSNFSEDCETEINFLLKQALNIVGTLPFTYMLEKWRWMVFEGKIPKEQWMEKWWEMKREIVGVVEPLPHDETYCDPASLFHVANDYSFIRYFTRTILEFQFQEALCQIANHTGPLHKCDISNSTEAGKQLKNMLELGKSKPWTFALEQIARTKEMDAKPLLNYFKPLFSWLKEQNGNSVGWSADWSPYSEQSIKVRISLKSALGEKAYEWNDNEMYLFRSSVAYAMRVYFLKVKNETIPFRAEDVWVSDEKIRVSFKFFVTSPTNVSDIIPRSEVEDAIRMSRGRINDAFRLDDKTLEFLGIQPT
[4]
  koff: 0.000301 s⁻¹
